Broadly, the Kd is a measure of binding affinity in units of concentration.

The results in this text go back to patent publication US20030162943A1 (Takeda / Millennium, published 2003).

T1: murine D6 (murine, UniProt O08707 1-378)
T1 construct: Endogenous on B-end cells in the polyclonal antibody staining; also called murine D6 receptor; mouse D6
T1 sequence: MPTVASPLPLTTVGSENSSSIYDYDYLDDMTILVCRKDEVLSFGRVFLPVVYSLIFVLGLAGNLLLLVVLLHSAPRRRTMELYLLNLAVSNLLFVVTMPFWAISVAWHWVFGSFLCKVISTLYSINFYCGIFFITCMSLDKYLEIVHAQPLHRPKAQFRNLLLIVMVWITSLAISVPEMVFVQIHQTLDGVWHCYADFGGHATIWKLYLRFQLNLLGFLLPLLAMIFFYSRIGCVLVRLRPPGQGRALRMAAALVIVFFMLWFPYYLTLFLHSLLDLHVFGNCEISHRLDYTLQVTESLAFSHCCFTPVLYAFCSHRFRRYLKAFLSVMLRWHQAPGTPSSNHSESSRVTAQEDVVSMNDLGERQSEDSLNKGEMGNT

T2: human CCR5 (human, UniProt P51681 1-352 at identity 1.00))
T2 chain: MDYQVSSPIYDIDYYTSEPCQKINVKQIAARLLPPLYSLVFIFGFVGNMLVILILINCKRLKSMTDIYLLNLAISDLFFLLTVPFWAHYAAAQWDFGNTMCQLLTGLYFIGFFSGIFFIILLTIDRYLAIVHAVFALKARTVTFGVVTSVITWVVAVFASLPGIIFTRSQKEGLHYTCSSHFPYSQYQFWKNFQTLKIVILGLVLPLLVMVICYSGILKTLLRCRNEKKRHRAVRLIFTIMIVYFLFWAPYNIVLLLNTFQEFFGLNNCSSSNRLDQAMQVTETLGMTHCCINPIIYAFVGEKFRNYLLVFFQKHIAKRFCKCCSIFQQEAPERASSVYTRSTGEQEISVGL

T3: human D6 (human, UniProt O00590 1-384)
T3 construct: Full-length human D6 expressed in CHO, Hos.CD4, HEK 293, K293 or L1.2 cells; Endogenous on THP-1 cells; also called human D6 receptor; wild type human D6
T3 sequence: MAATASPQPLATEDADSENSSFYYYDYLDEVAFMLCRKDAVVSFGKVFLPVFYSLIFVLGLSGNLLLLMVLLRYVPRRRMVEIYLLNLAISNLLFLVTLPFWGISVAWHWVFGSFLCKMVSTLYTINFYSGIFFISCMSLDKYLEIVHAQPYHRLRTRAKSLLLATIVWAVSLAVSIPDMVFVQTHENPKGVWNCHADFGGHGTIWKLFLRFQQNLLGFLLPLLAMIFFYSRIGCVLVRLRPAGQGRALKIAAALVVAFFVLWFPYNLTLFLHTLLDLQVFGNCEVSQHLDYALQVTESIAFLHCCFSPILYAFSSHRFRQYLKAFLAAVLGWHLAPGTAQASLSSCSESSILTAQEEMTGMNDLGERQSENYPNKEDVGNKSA

B1: human D6 mutant K142R, E145A (receptor)
chain: T3 sequence with K142R, E145A
notes: Expressed in HEK 293 cells; also called K142R,E145A mutant
B2: human D6 triple mutant N92D, K142R, E145A (receptor)
chain: T3 sequence with N92D, K142R, E145A
notes: Expressed in HEK 293 cells
B3: murine JE (ligand)
chain: not shown
notes: They are treated here as one protein (JE is the murine MCP-1); also called murine MCP-1
B4: human MIP-1β (ligand, UniProt P13236 24-92, looked up)
chain: APMGSDPPTACCFSYTARKLPRNFVVDYYETSSLCSQPAVVFQTKRSKQVCADPSESWVQEYVYDLELN
B5: human RANTES (ligand, UniProt P13501 24-91, looked up)
chain: SPYSSDTTPCCFAYIARPLPRAHIKEYFYTSGKCSNPAVVFVTRKNRQVCANPEKKWVREYINSLEMS
notes: also called hRANTES; HRANTES
B6: murine MIP-1β (ligand, UniProt P14097 24-92, looked up)
chain: APMGSDPPTSCCFSYTSRQLHRSFVMDYYETSSLCSKPAVVFLTKRGRQICANPSEPWVTEYMSDLELN
notes: also called mMIP-1β; murine M1β
B7: human MCP-3 (ligand)
chain: not shown
notes: also called hMCP-3
B8: murine MIP-1α (ligand, UniProt P10855 24-92, looked up)
chain: APYGADTPTACCFSYSRKIPRQFIVDYFETSSLCSQPGVIFLTKRNRQICADSKETWVQEYITDLELNA
modifications: also: radioiodinated (125I) when used as tracer
notes: also called mMIP-1α
B9: human MCP-2 (ligand, UniProt P80075 24-99, looked up)
chain: QPDSVSIPITCCFNVINRKIPIQRLESYTRITNIQCPKEAVIFKTKRGKEVCADPKERWVRDSMKHLDQIFQNLKP
notes: also called hMCP-2
B10: human MIP-1α (ligand, UniProt P10147 24-92, looked up)
chain: SLAADTPTACCFSYTSRQIPQNFIADYFETSSQCSKPGVIFLTKRSRQVCADPSEEWVQKYVSDLELSA
notes: also called hMIP-1α
B11: murine MCP-5 (ligand, UniProt Q62401 23-104, looked up)
chain: GPDAVSTPVTCCYNVVKQKIHVRKLKSYRRITSSQCPREAVIFRTILDKEICADPKEKWVKNSINHLDKTSQTFILEPSCLG
notes: also called mMCP-5
B12: human HCC1 (ligand, UniProt Q16627 20-93, looked up)
chain: TKTESSSRGPYHPSECCFTYTTYKIPRQRIMDYYETNSQCSKPGIVFITKRGHSVCTNPSDKWVQDYIKDMKEN
B13: human MCP-4 (ligand)
chain: not shown
B14: human Eotaxin (ligand)
chain: not shown
B15: murine Eotaxin (ligand, UniProt P48298 24-97, looked up)
chain: HPGSIPTSCCFIMTSKKIPNTLLKSYKRITNNRCTLKAIVFKTRLGKEICADPKKKWVQDATKHLDQKLQTPKP
B16: KC (ligand, UniProt P12850 25-96, looked up)
chain: APIANELRCQCLQTMAGIHLKNIQSLKVLPSGPHCTQTEVIATLKNGREACLDPEAPLVQKIVQKMLKGVPK

Changes are numbered by the printed parent chain. In names and notes the source's numbering stands.

For the first experiment, the target named is B8. Nature of the experiment: radioligand binding on transfected cells.
In the case of B1, the binding result is recorded as “binds”.
Still for that read-out and setting: the result for B2 reads “binds”.

The target in the next experiment is T1, murine D6. Nature of the experiment: competition with 125I-murine MIP-1α on CHO cells stably expressing murine D6; LIGAND analysis. As for the experimental part:
(§1) Stably transfected CHO cells were plated at 10^5 cells/well in 24-well plates and incubated overnight at 37° C. After washing with warm PBS, the cells were incubated in 250 μl of binding buffer (special liquid medium plus 10% fetal calf serum, 4 mM glutamine, 0.2% sodium azide, 25 mM HEPES (pH 7.4)) containing variable concentrations of radioiodinated MIP-1 and cold competitor chemokine. Binding proceeded for 90 minutes at 22° C., then each well washed three times in ice-cold PBS and the cell monolayer was then solubilized by the addition of 0.5 ml of 1% SDS. Lysed cells were transferred to a counting vial and bound radioactivity counted for 1 minute in Beckman Gamma 5500B counter. Each data point was assayed in triplicate and each experiment performed at least twice of accuracy. Data was analyzed using Scahot and Scafit programs in LIGAND software (Munson et al. (1980) Anal. Biochem. 107:220-239).
B3 displayed a Kd of 1.5 nM.
Still for that read-out and setting: the value for B4 was 0.26 nM; that for B5 was 2 nM; that for B6 was 0.77 nM.
Still for that read-out and setting: the result for B7 reads 5 nM.

The next experiment deals with B2. Nature of the experiment: cell-based or functional assay.
As to B8, the “[Ca++]” value is 11.3 nmol/L.
Still for that read-out and setting: the result for B9 reads 13.7 nmol/L.

A further experiment deals with B1. Nature of the experiment: cell-based or functional assay.
Take B8: the “[Ca++]” value turned out to be 28.2 nmol/L.
Still for that read-out and setting: the result for B5 reads 19.3 nmol/L; that for B9, 22.9 nmol/L.

The target of a further experiment is T2, human CCR5. Nature of the experiment: cell-based or functional assay.
Take B10: the “[Ca++]” value stood at 412 nmol/L.

The target in another experiment is T1, murine D6. Description: binding assays on CHO cells expressing murine D6. On the procedure: as §1
In the case of B8, the binding result is reported as “binds”.

A further experiment addresses T3, human D6. Description: displacement of 125I-murine MIP-1α by unlabeled chemokine on cells expressing human D6; LIGAND analysis. As for the experimental part:
as §1
The receptor binding assays were carried out as described above for the displacement analysis of murine D6 with cells being plated at 2×10⁵ cells/well in 24-well plates and incubated overnight at 37° C. prior to binding analysis.
For orientation: In a radioligand displacement assay an active substance lowers the binding of a labelled ligand.
Consider B3, for which the affinity, expressed as Kd, was 613 nM.
The molecule B4 had a Kd of 1.7 nM.
B11: the Kd worked out at 6.3 nM.
Same read-out and setting: the result for B8 reads 0.92 nM; that for B12, 27.2 nM; that for B5, 3.6 nM.
The same measure, in the same setting: the result for B13 reads 5.9 nM.
Same read-out and setting: the result for B10 reads 64 nM.
As to B14, the Kd was 46 nM.
The same measure, in the same setting: the result for B6 reads 0.755 nM.
B9 came in with a Kd of 768 nM.
Still for that read-out and setting: the result for B7 reads 1.2 nM; that for B15, 30 nM.

For another experiment, the target named is T1, murine D6. Nature of the experiment: displacement of radiolabeled murine MIP-1α from murine D6 on transfected cells. On the procedure:
as §1
Regarding B16, the binding result is “no binding”.
